Measurements: the supplement of paper PMC9170038

System: K4 kissing-loop RNA reporter
Test: apparent KD of K4 kissing-loop reporter; higher = weaker reporter binding
Conditions: Eterna round: R107
Description: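 RNA-MaP round R107: designed RNA switches with theophylline, tryptophan, arginine or FMN aptamers are transcribed on-chip within common flanks. They are titrated with a labelled K4 kissing-loop RNA reporter in RNA-MaP buffer (100 mM Tris pH 7.5, 80 mM KCl, 4 mM MgCl2), without ligand or with the indicated ligand. Median apparent KD per design.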

[1] = input ligand: theophylline 20 uM
[2] = input ligand: tryptophan 2.4 mM
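Further: bound reporter read as fluorescence of individual clusters on recovered sequencing chips by microscopy, with normalized cluster intensities fitted with a binding model.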

Sequence	apparent KD of K4 kissing-loop reporter (input ligand: FMN 200 uM) [nM]	apparent KD of K4 kissing-loop reporter (input ligand: arginine 13.2 mM) [nM]	apparent KD of K4 kissing-loop reporter (input ligand: none) [nM]	apparent KD of K4 kissing-loop reporter [1] [nM]	apparent KD of K4 kissing-loop reporter [2] [nM]
AAUAAUGGAGUGAUGUUCCAGUAAUGGGAUACCAGACAUGAAAAUGUCCCUUGGCAGCUCAAAGGUCUAGUGAUGUUAGAAAGAA [KL-SSTheo-A5 #Double Kiss]	273	300	310	282	232
AAUACAGUGUCGGCCGCCACUGUAACAUGCCAUGAGACAUGAGACAUGAGUGAUGUUCAUGUAGACAGGACCGGGACUCAUGUAU [KL-SSTryp-B3 #analogue]	450	373	455	370	227
AAUACGUUCACGGCCGCCACUGAAUAAUUGGUAAGUAGUGAUGUUACUUUACAUAUCUUAUUUAACAGGACCGGGUGAUCGUUUA [JR_Nu_ExcTryptoB_Sub028]	130	108	122	105	142
AAUAUAAAGCAGUGAUGUUGCUUAUGAGAAGGAGCGCACGAAAGUGCAGGUAGGUCGCUCAGCCAAGUGGACGAAAACGUCCACA [whbob_SS_Arginine_A_sa106]	82.1	92.5	86.3	85.3	72.1
AAUAUAGUGAUGUUAUAUAAGAAGGAGUUACGAGGACCGGUACGGCCGCCACUCGAAACGAGUGAGGAUUUGGGAGAUUGGGUUU [SSTryptA.M]	493	443	474	324	389
AAUCAAUACAGAAGGAGCGUGACAAUUACUAUUGAAUUAGGAGCUAGUGAUGUUAGCAUAACACAGGUAGGUCGCUGUACAUUUA [JR_SSArginiB_Sub012]	145	175	163	182	148
AAUCAAUACAGAAGGAGCGUGACAAUUACUAUUGAUUCAGGAGCUAGUGAUGUUAGCAUUUCACAGGUAGGUCGCUGUACAUUUA [JR_SSArginiB_Sub013]	165	203	201	213	153
AAUCGCAGUGAUGUUGCGAUUCCGUUGAGGGAGGAUAUUGGUAAUACAAGAAGGUUCGGUUACGGGAGAUGUUAGUAAUAGGGCC [Exclusion FMN A GF21]	46.2	41.3	61.8		85.2
AAUGGAGGCUGAAGGAGCGCCGCCAGUGAUGUUGGGAGUUAGAUACCAGUGAUGUUGGGCCGGCAGGUAGGUCGCGGUUUUUAUU [Exclusion Arginine B Gf 16]	186	78.4	136	153	126
AAUGUACAGGGAAGGAGCGUAGUCCAGUGAUGUUGGAAUUAAAUUCCUGUGAUGUUGGUUAUACAGGUAGGUCGCCCUAAAGUGC [KL-XARG-B21]	112	92.2	108	118	93.3
AAUUUAGUGACGGCCGCCACUAGGGUGAUUUUUUUGUUUGAGUGAUGUUUUGAUGUUUGAUUUUGUAGGACCGGGUUAGGUGAUG [cccmullin]	327	310	343	364	262
AAUUUAGUGACGGCCGCCACUAUGGUGAUUUAUUUGUUUGAGUGAUGUUUUGAUGUUUGAUUUUGUAGGACCGGGUUAGGUGAUG [aaacmullin]	355	293	364	354	279
AAUUUAUUAACUGAUACCAGACUUAAUGAAUUGUAAAUUACUAGUGAUGUUAGUGAAUCUGUCCCUUGGCAGCAGUAUUUAUUAA [JR_ExcTheophyB_Sub010]	144	209	173	208	124
AAUUUAUUAUCUGAUACCAGACUUUUUCUUGUUUAUAAGUCAAGUGAUGUUUGACUUUUAGUCCCUUGGCAGCAGUAUUUUUUAA [JR_Nu_SSTheophyB_Sub026]	125	128	123	113	114
ACACGCAACUAUAGACCAGUGAUGUUGGAACGAGGACCGGUACGGCCGCCACUCGAGCGGACGAUCUACGCCUCUUAUGCUAACG [theeternabot_exclusion_KL_Trp_A_15]	482	481	552	545	350
ACACUAUCGUCAUAGACGGUAGUGAAAAGUGAGGAUAUGAGUGAUGUUAGAAGGCACUAAGACUGUAUCGAAUAGAUACAGUCAA [FmnA 4 #K4BetweenAptamer #OpenEnded]	803	262	384	292	349
ACACUAUCGUCAUAGACGGUAGUGAAAGCUCAGGAUAUGAGUGAUGUUAGAAGGGAGUAAAUCUUAGGUAUCGAAUAGAUACCAA [FmnA 7 #K4BetweenAptamer #OpenEnded]	1220	364	508	287	416
ACAUCGGUUGAGAGUGAUGUUCCUUGUGUUCGAGGACCGGUACGGCCGCCACUCGGGUAGAAAAUAACAGAUGUGUUUCCUUUUU [BDazzled - #18 SS Tryptophan A]	164	80.5	171	181	209
ACCAUCAAAGAUGGCCAGGACUCAACUGAUACCAGAGUGAAAACACUCCCUUGGCAGCAGGUGAGUGAUGUUCACGAGUCCUGGA [Omel KL Theo A SS B v7]	117	82	215	168	147
ACCAUUUUACCGGCAGUAGUGAUGUUACUCCGAGGACCGGUACGGCCGCCACUCGCGAACGUAGGGUCGCGCACUCAAAGAGUGC	100	75.6	106	67	89.7
ACCCUGGGUCCCGAAAGGGACCCAGGGAGUGAGGAUAUGUGGAAACACAGAAGGCACAGCACAGUGAUGUUGUGCGACGAAAGUC [#02 K4 FMN A Same State]	566	97.5	401	175	217

Sequence	apparent KD of K4 kissing-loop reporter (input ligand: FMN 200 uM) [nM]	apparent KD of K4 kissing-loop reporter (input ligand: arginine 13.2 mM) [nM]	apparent KD of K4 kissing-loop reporter (input ligand: none) [nM]	apparent KD of K4 kissing-loop reporter [1] [nM]	apparent KD of K4 kissing-loop reporter [2] [nM]
ACCGCAUUGGGAUGAUCCCAAUGCGCUGGUCGAGGACCGGUACGGCCGCCACUCGUCCAGUGAUGUUGGACUAGGGCAACUGAAG [Bileesma]	519	270	261	303	109
ACCUACCAUUAGUGAUGUUAAUGGACGGAAGGAGCGCGGAUAUCCGCAGGUAGGUCGCCGAAGGCUAGACAUUGUCUAGCCAUUA [AK1.2 SS Arginine A]	225	186	196	166	182
ACCUACGAUCACAAAAGUGAUUGUAGGAUCUAGGAUAUGCUGAAGAGCAGAAGGAGAGUGAUGUUCUCAACUCACGAAAGUGAGA [whbob_Ex_FMNA__2th188]	382	222	198	258	175
ACGAUCAUGUCGGCCGCCACUGAGAGUAGUGAUGUUACUUUUAUGUUUUAGUUAUAAUAUUUGAACAGGACCGGGACAUGUUCGU [JR_ExcTryptoB_Sub023]	103	84.8	85.3	80.1	92.2
ACGAUUUACAGAAGGAGCGUGUAUUUAACUACAAUUAUCUUAGCGAGUGAUGUUCGUUUUACACAGGUAGGUCGCUGUAUAUCGA [JR_ExcArginiB_Sub011]	218	303	263	374	220
ACGCUGUGAAUAACACAGCGAAUAAAUUCGCGAGGACCGGUACGGCCGCCACUCGCUAACUGCGAGUGAUGUUCGAUAAUAAAAU [Mat - Mod of OpenEnded 3 - D13]	176	80.8	172	201	91.1
ACGGAGUGAUGUUCCGGCCUCCCAGCAGAUACCAGCAGUCGCGAUUGCCCUUGGCAGCUGUCCGCGGCAUCCACUUGUAGCGGUA [theeternabot_exclusion_KL_Theo_A_12]	223	173	204	222	197
ACGUAGUUCUAGGAUACCAGCCAAGGACGCCAGGACAAAAGUCCUGGCGCCAGUGAUGUUGGCCCUUGGCAGCCUAGAACUACGA [Omei KL Theo B Exc B v5]	197	168	182	205	176
ACGUAUAUCAGAGGAUAUCGUAUUAAUAUUUUAUCUAUCUAUAUAUGCAGUGAUGUUGCAAUAAUUCGAGAAGGCUGAUUUACGA [JR_ExcFMNB_Sub010]	112	124	91.6	133	87.3
ACGUCAUCAAAAGGAUAUGCAUCGAAGUGAUGUUUCGUCAUAUCAGUCUGAUUGCAGCAAUUAGGAGCAGAAGGUUUAGUCCGGU [theeternabot_exclusion_KL_FMN_B_11]	91.6	80.7	91.9	77.6	83.1
ACGUGUCACUGAAGGAGCGUCUACCGAAUACGAGUGAUGUUGGUAUACCACUUAUAUAGUGGACAGGUAGGUCGCAGUGAUACGU [Arg B Ex t4]	987	769	938	757	837
ACUCUUGCGUAUGAUACCAGCUUGUACCGCCACAUAUAUUCUAAGAGUUGAGUGAUGUUUAGCCCUUGGCAGCAUACUUGUGCGU [theeternabot_exclusion_KL_Theo_B_42]	706	546	778	606	702
ACUUAGAAUGAAGGAUAUUGGUUACGAGGGCUAACCAAAACGGAUCACUUGUCCAGUGAUGUUGUCCAAGAAGGUCACGUUAAAC [theeternabot_exclusion_KL_FMN_B_44]	776	665	868	492	576
ACUUAUUGUGUCGAUACCAGCAGGUGACGACGCCUCAUGGCUGACGAGUGAUGUUCGACUUGCCCUUGGCAGCGACAUACGCCGG [theeternabot_sameState_KL_Theo_B_12]	354	228	356	365	310
ACUUGCACAAAGUCGUCAACCGGUGAAUCAAAGGAUAUUAAUUCACUAAGAAGGUUGAGCCGAGUGAUGUUCGACUGUAAGUCCC [theeternabot_exclusion_KL_FMN_A_34]	415	382	551	506	348
AGAACUGUCUUGGAUACCAGUGAUGUUGGUAUCGAUGUGUGAGUGCAAAGCGUCCCACAUUGCCCUUGGCAGCUAAGACUGUUCA [Omei KL Theo B Exc A v3]	158	134	148	179	144
AGAAGAUAUCGUGAUACCAGACCGCGGAGAGGCCGGAAGAGGGUAGUGAUGUUGCAUGCAGUCCCUUGGCAGCACUGACAGUAUU [theeternabot_sameState_KL_Theo_B_40]	754	287	694	539	601
AGACUACCACACUGUCAAUAGACAGUGGACUAGGAUAUGCUGAUAAGCAGAAGGAGUGAUGUUCCUAGGUAGUCAAUAAAAUAAU [FmnAX 13 G28]	357	301	378	532	396
AGACUACCACACUGUCAAUAGACAGUGUACUAGGAUAUGCUGAUAAGCAGAAGGAGUGAUGUUCCUUGGUAGUCAAUAAAAUAAU [FmnAX 13 U28+U67]	357	237	258	268	238
AGACUACCUACACUGUCAAUAGACAGUGACUAGGAUAUGCUGAUAAGCAGAAGGAGUGAUGUUCCUGGUAGUCAAAUAAAAUAAU [FmnAX 12 #SwitchBubble #StaticStem #K4Early]	498	295	311	323	278
AGACUACUGAUAGGAUAUAACAUACUACUCGUAUACCGAAAGGUAUACGAGACCCUUCUAGUGAUGUUAGAAGGGUCGGUAGUCA [Omei KL FMN B Exc B v8]	87.5	70.1	68.1	68.6	74.7
